US20210301005A1 (Genentech, published 2021)
Numbering of substitutions follows the chain as printed. Read-outs that look alike come from different tables or passages of the source.

Tests used:
[1] = molecular target: T1, human TGFβ3, mature dimeric form (human, UniProt P10600 301-412); assay: SPR
T1 construct: Peprotech, expressed in E. coli; also called TGFb3
T1 sequence: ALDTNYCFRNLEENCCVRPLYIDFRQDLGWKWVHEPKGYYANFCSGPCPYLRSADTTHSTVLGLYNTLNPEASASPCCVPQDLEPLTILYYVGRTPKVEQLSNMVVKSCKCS

[2] = molecular target: T2, human TGFβ2, mature receptor-binding domain (human, UniProt P09858 303-414 (pig entry), The mature TGFβ2 is a disulfide-linked homodimer of this 112-residue chain. The 4A11 epitope spans both monomers (p-1207).); assay: SPR
T2 construct: Peprotech; also called TGFb2
T2 sequence: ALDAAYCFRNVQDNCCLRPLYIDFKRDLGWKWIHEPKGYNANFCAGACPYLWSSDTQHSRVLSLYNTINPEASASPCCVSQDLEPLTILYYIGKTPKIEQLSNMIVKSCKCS

[3] = molecular target: T1, human TGFβ3, mature dimeric form; assay: SPR; remark: listed apart in the source
[4] = molecular target: T2, human TGFβ2, mature receptor-binding …; assay: BIAcore T200
Protocol: (§1) For binding affinity determinations of all humanized 2A10 antibodies, Surface Plasmon Resonance (SPR) measurement with a BIAcore™-T200 instrument was used. Briefly, series S CM5 biosensor chip with protein A was first applied to capture each humanized 2A10 variant to achieve approximately 100 response units (RU) on each flow cell, following by injection of 3-fold serial dilutions of human TGFβ1, TGFβ2 or TGFβ3 (0.02 nM to 5 nM) in HBS-EP buffer (0.01M HEPES pH 7.4, 0.15M NaCl, 3 mM EDTA and 0.05% v/v surfactant P20) at 25° C. with a flow rate of 50 μl/min for kinetics measurement. Association rates (ko.) and dissociation rates (koff) were calculated using a simple one-to-one Langmuir binding model (BIAcore T200 evaluation software version 2.0) to determine the equilibrium dissociation constant (KD), which was calculated as the ratio koff/kₒₙ.

[5] = molecular target: T1, human TGFβ3, mature dimeric form; assay: BIAcore T200
Protocol: as §1

[6] = molecular target: T2, human TGFβ2, mature receptor-binding …; assay: BIAcore T200; remark: listed apart in the source
Protocol: as §1

[7] = molecular target: T1, human TGFβ3, mature dimeric form; assay: BIAcore T200; remark: listed apart in the source
Protocol: as §1

[8] = molecular target: T1, human TGFβ3, mature dimeric form; assay: cell-based or functional assay
[9] = molecular target: T3, human TGFβ1, mature receptor-binding domain (human, UniProt P01137 279-390); assay: cell-based or functional assay
T3 sequence (P01137 279-390 limits assumed): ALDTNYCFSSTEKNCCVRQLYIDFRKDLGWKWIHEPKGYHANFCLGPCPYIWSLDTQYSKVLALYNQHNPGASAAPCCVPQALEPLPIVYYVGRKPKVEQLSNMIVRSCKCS

[10] = molecular target: T2, human TGFβ2, mature receptor-binding …; assay: cell-based or functional assay
[11] = molecular target: T1, human TGFβ3, mature dimeric form; assay: cell-based or functional assay; remark: listed apart in the source
[12] = molecular target: T3, human TGFβ1, mature receptor-binding …; assay: cell-based or functional assay; remark: listed apart in the source
[13] = molecular target: T2, human TGFβ2, mature receptor-binding …; assay: cell-based or functional assay; remark: listed apart in the source
[14] = molecular target: T1, human TGFβ3, mature dimeric form; assay: cell-based or functional assay; remark: listed apart in the source
[15] = molecular target: T3, human TGFβ1, mature receptor-binding …; assay: cell-based or functional assay; remark: listed apart in the source
[16] = molecular target: T2, human TGFβ2, mature receptor-binding …; assay: cell-based or functional assay; remark: listed apart in the source
[17] = molecular target: T1, human TGFβ3, mature dimeric form; assay: cell-based or functional assay; remark: listed apart in the source
[18] = molecular target: T3, human TGFβ1, mature receptor-binding …; assay: BIAcore T200; humanization BIAcore study (Tables 9 and 11), bound only
[19] = molecular target: T3, human TGFβ1, mature receptor-binding …; assay: SPR; Table 4 screening SPR, affinity at 25 C; no blocking of TGFb1 (>500 nM at 37 C)
[20] = molecular target: T2, human TGFβ2, mature receptor-binding …; assay: SPR; remark: listed apart in the source
[21] = molecular target: T2, human TGFβ2, mature receptor-binding …; assay: BIAcore T200; remark: listed apart in the source
[22] = molecular target: T2, human TGFβ2, mature receptor-binding …; assay: cell-based or functional assay; remark: listed apart in the source
[23] = molecular target: T2, human TGFβ2, mature receptor-binding …; assay: Biacore SPR
[24] = molecular target: T4, mouse TGFβ2, mature peptide (mouse, UniProt P27090 303-414); assay: Biacore SPR
T4 construct: mature
T4 sequence (looked up): T2 sequence with S59T, R60K, K94N

[25] = molecular target: T3, human TGFβ1, mature receptor-binding …; assay: cell-based or functional assay; remark: listed apart in the source
[26] = molecular target: T2, human TGFβ2, mature receptor-binding …; assay: cell-based or functional assay; remark: listed apart in the source
[27] = molecular target: T1, human TGFβ3, mature dimeric form; assay: cell-based or functional assay; remark: listed apart in the source
[28] = molecular target: T3, human TGFβ1, mature receptor-binding …; assay: cell-based or functional assay; remark: listed apart in the source
[29] = molecular target: T2, human TGFβ2, mature receptor-binding …; assay: cell-based or functional assay; remark: listed apart in the source
[30] = molecular target: T1, human TGFβ3, mature dimeric form; assay: cell-based or functional assay; remark: listed apart in the source
[31] = molecular target: T2, human TGFβ2, mature receptor-binding …; assay: cell-based or functional assay; remark: listed apart in the source
[32] = molecular target: T4, mouse TGFβ2, mature peptide; assay: cell-based or functional assay
[33] = molecular target: T3, human TGFβ1, mature receptor-binding …; assay: BIAcore T200
Protocol: as §1

[34] = molecular target: T2, human TGFβ2, mature receptor-binding …; assay: BIAcore T200; remark: listed apart in the source
Protocol: as §1

[35] = molecular target: T1, human TGFβ3, mature dimeric form; assay: BIAcore T200; remark: listed apart in the source
Protocol: as §1

[36] = molecular target: T3, human TGFβ1, mature receptor-binding …; assay: cell-based or functional assay; remark: listed apart in the source
[37] = molecular target: T2, human TGFβ2, mature receptor-binding …; assay: cell-based or functional assay; remark: listed apart in the source
[38] = molecular target: T1, human TGFβ3, mature dimeric form; assay: cell-based or functional assay; remark: listed apart in the source

B1: 2A10 (antibody, V domains shown)
VH: EVQLVESGGGLVQPKGSLKLSCAASGFDFNSYGMSWVRQAPGKGLDLVADIVSKTYNYTTYYSDSVKDRFTISRDDSQSMVYLQMDNLKTEDTALYYCTVAPGGSFDYWGQGVMVTVSS
VL: DIVLTQSPALAVSLGQRATISCRASQSVSISRFNLMHWYQHKPGQQPKLLIYRASNLASGIPARFSGSGSGTDFTLTINPVQADDLATYYCQHSRESPWTFGGGTKLEIK
notes: anti-TGFβ3; also called rat 2A10; r2A10
Kd [1]: < 10 pM | Kd [2]: 46 pM | Kd [3]: < 2 pM | Kd [4]: 62.8 pM | Kd [5]: 1.2 pM | Kd [6]: 62.8 pM | Kd [7]: 1.2 pM | cell-based IC50 [8]: < 250 pM | Blocking IC50 [9]: > 500000 pM | Blocking IC50 [10]: 193000 pM | Blocking IC50 [11]: 20 pM | HEKBlue TGFβ blocking IC50 [12]: > 200000 pM | HEKBlue TGFβ blocking IC50 [13]: 70000 pM | HEKBlue TGFβ blocking IC50 [14]: 10 pM | HEKBlue TGFβ blocking IC50 [15]: > 200000 pM | HEKBlue TGFβ blocking IC50 [16]: 70000 pM | HEKBlue TGFβ blocking IC50 [17]: 10 pM | Kd [18]: > 5000 pM | Kd [19]: 1600 pM

B2: 6F12 (antibody, V domains shown)
VH: QVQLKESGPGLVQPSQTLSLTCTVSGFSLTTYNVHWVRQPPGKGLEWMGLIWNTGGTRYNSALKSRLSISKDTSKSQVFLRMNSLQTEDTATYYCARDPVPNKWHFDFWGPGTMVTVSS
VL: DIQMTQSPASLSASLGETVTIECLASEDIYSNLAWYQQKPGKSPQLLIYDARSLQDGVPSRFSGSESGPQYSLEINSLQSEDAVTYFCQQHHAYPFTFGSGTKLEIK
notes: anti-TGFβ2; called rat and rabbit in different places; also called rat 6F12; r6F12
Kd [20]: < 10 pM | Kd [2]: < 1 pM | Kd [21]: ≤ 0.5 pM | cell-based IC50 [22]: < 250 pM | fold potency against 1D11 [22]: ~100 fold | Kd [23]: < 1 pM | Kd [24]: < 1 pM | Blocking IC50 [9]: > 500000 pM | Blocking IC50 [10]: 40 pM | Blocking IC50 [11]: > 500000 pM | HEKBlue TGFβ blocking IC50 [25]: > 200000 pM | HEKBlue TGFβ blocking IC50 [26]: 4 pM | HEKBlue TGFβ blocking IC50 [27]: > 200000 pM | HEKBlue TGFβ blocking IC50 [28]: > 200000 pM | HEKBlue TGFβ blocking IC50 [29]: 4 pM | HEKBlue TGFβ blocking IC50 [30]: > 200000 pM | IC50 (read off the curve) [31]: ~30 pM | IC50 (read off the curve) [32]: ~60 pM

B3: h2A10.v2 (antibody, human IgG1, kappa, N297G)
heavy: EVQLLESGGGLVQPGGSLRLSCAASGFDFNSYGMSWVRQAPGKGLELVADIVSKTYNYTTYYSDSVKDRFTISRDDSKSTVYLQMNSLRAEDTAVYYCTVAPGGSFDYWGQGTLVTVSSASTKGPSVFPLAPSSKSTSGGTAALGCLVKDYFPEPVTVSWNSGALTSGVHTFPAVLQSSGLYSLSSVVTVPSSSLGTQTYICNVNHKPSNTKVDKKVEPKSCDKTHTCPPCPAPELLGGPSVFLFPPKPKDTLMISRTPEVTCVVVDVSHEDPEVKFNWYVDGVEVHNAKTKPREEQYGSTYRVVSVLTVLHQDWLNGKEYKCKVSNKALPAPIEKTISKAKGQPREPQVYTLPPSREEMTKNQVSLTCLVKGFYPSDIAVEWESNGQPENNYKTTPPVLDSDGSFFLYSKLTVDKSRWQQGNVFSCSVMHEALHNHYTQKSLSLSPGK
light: DIQLTQSPSSLSASVGDRVTITCRASQSVSISRFNLMHWYQHKPGKQPKLLIYRASNLASGIPSRFSGSGSGTDFTLTISSLQPEDFATYYCQHSRESPWTFGGGTKVEIKRTVAAPSVFIFPPSDEQLKSGTASVVCLLNNFYPREAKVQWKVDNALQSGNSQESVTEQDSKDSTYSLSSTLTLSKADYEKHKVYACEVTHQGLSSPVTKSFNRGEC
notes: also called humanized 2A10 version 2
Kd [4]: 314 pM | Kd [5]: 1.3 pM | Kd [33]: > 5000 pM | Kd [34]: 314 pM | Kd [35]: 1.3 pM | HEKBlue TGFβ blocking IC50 [12]: > 200000 pM | HEKBlue TGFβ blocking IC50 [13]: > 200000 pM | HEKBlue TGFβ blocking IC50 [14]: 10 pM | HEKBlue TGFβ blocking IC50 [36]: > 200000 pM | HEKBlue TGFβ blocking IC50 [37]: > 200000 pM | HEKBlue TGFβ blocking IC50 [38]: 10 pM
